The record followed here is the array DNA melting data of Ke et al..

The term Tm denotes the temperature at the midpoint of the melting transition.

This data set can be described thus: melting temperature; UV melt of duplexes.

As for “ATTGATATCCTTTTCTATTCATCTTTCATT+AATGAAAGATGAATAGAAAAGGATATCAAT ((((((((((((((((((((((((((((((+))))))))))))))))))))))))))))))”, the Tm runs as follows: (sodium 0.07 M, strand 2 µM) 53.5 °C; (sodium 0.12 M, strand 2 µM) 58.3 °C; (sodium 0.22 M, strand 2 µM) 62.3 °C; (sodium 0.62 M, strand 2 µM) 68.6 °C; (sodium 1.02 M, strand 2 µM) 70.4 °C.
As for “CATATTGGCCAATATG+CATATTGGCCAATATG ((((((((((((((((+))))))))))))))))”, where the note is “sodium 1 M, strand 0.0001 M”, the Tm came to 65.3 °C.
On to “ATAACTTTACGTGTGTGACCTATTA+TAATAGGTCACACACGTAAAGTTAT (((((((((((((((((((((((((+)))))))))))))))))))))))))”, for which the Tm runs as follows: (sodium 0.07 M, strand 2 µM) 56.6 °C; (sodium 0.12 M, strand 2 µM) 60.7 °C; (sodium 0.22 M, strand 2 µM) 64.7 °C; (sodium 0.62 M, strand 2 µM) 69.6 °C; (sodium 1.02 M, strand 2 µM) 71.8 °C.
With “GCCGAGGTCCATGTCGTACGC+GCGTACGACATGGACCTCGGC (((((((((((((((((((((+)))))))))))))))))))))”, the Tm (sodium 0.1 M, strand 4 µM) was found to be 69.5 °C.
As for “AATATATGATCATCGAT+ATCGATGATCATATATT (((((((((((((((((+)))))))))))))))))”, for the setting “sodium 0.12 M, strand 3 µM”, the Tm worked out at 50 °C.
“CGAGCTTATCCCTATCCCTC+GAGGGATAGGGATAAGCTCG ((((((((((((((((((((+))))))))))))))))))))”: the Tm was 56 °C (sodium 0.07 M, strand 2 µM); 60.2 °C (sodium 0.12 M, strand 2 µM); 64.1 °C (sodium 0.22 M, strand 2 µM); 68.5 °C (sodium 0.62 M, strand 2 µM); 70.3 °C (sodium 1.02 M, strand 2 µM).
On to “CGCGCCACGTGTGATCTACAGCCGTTCGGC+GCCGAACGGCTGTAGATCACACGTGGCGCG ((((((((((((((((((((((((((((((+))))))))))))))))))))))))))))))”, for which the Tm runs as follows: (sodium 0.07 M, strand 2 µM) 72.7 °C; (sodium 0.12 M, strand 2 µM) 76.3 °C; (sodium 0.22 M, strand 2 µM) 79.5 °C; (sodium 0.62 M, strand 2 µM) 83.4 °C; (sodium 1.02 M, strand 2 µM) 84.5 °C.
For “CAACTTGATATTAATA+TATTAATATCAAGTTG ((((((((((((((((+))))))))))))))))”, the Tm (sodium 1 M, strand 18 µM) was 52 °C.
In the case of “TATTGAGAACAAGTGTCCGATTAGCAGAAA+TTTCTGCTAATCGGACACTTGTTCTCAATA ((((((((((((((((((((((((((((((+))))))))))))))))))))))))))))))”, the Tm was found to be 61.3 °C (sodium 0.07 M, strand 2 µM); 65.4 °C (sodium 0.12 M, strand 2 µM); 69.6 °C (sodium 0.22 M, strand 2 µM); 74.8 °C (sodium 0.62 M, strand 2 µM); 76.4 °C (sodium 1.02 M, strand 2 µM).
With “AGAAGGGAGAGAAAAAGAAA+TTTCTTTTTCTCTCCCTTCT ((((((((((((((((((((+))))))))))))))))))))”, the Tm (sodium 1 M, strand 2 µM) was 61.9 °C.
As to “AACGTGAATTCTGGCA+TGCCAGAATTCACGTT ((((((((((((((((+))))))))))))))))”, the Tm (sodium 0.12 M, strand 7.4 µM) worked out at 58.3 °C.
In the case of “ATATATATAGCTATATATAT+ATATATATAGCTATATATAT ((((((((((((((((((((+))))))))))))))))))))”, under “sodium 0.12 M, strand 5 µM”, the Tm stood at 44.8 °C.
For “TCGGAGAAATCACTGAGCTGCCTGAGAAGA+TCTTCTCAGGCAGCTCAGTGATTTCTCCGA ((((((((((((((((((((((((((((((+))))))))))))))))))))))))))))))”, the Tm runs as follows: (sodium 0.07 M, strand 2 µM) 66.3 °C; (sodium 0.12 M, strand 2 µM) 70.4 °C; (sodium 0.22 M, strand 2 µM) 74.1 °C; (sodium 0.62 M, strand 2 µM) 79 °C; (sodium 1.02 M, strand 2 µM) 80.9 °C.
As for “GCCAACTCCGTCGCCGTTCGTGCGC+GCGCACGAACGGCGACGGAGTTGGC (((((((((((((((((((((((((+)))))))))))))))))))))))))”, the Tm reads like this: (sodium 0.07 M, strand 2 µM) 73.5 °C; (sodium 0.12 M, strand 2 µM) 76.5 °C; (sodium 0.22 M, strand 2 µM) 80.6 °C; (sodium 0.62 M, strand 2 µM) 83.2 °C; (sodium 1.02 M, strand 2 µM) 84.6 °C.
On to “TTCAAGTTAAACATTCTATC+GATAGAATGTTTAACTTGAA ((((((((((((((((((((+))))))))))))))))))))”, for which the Tm was 45.7 °C (sodium 0.07 M, strand 2 µM); 49.5 °C (sodium 0.12 M, strand 2 µM); 53.9 °C (sodium 0.22 M, strand 2 µM); 59.4 °C (sodium 0.62 M, strand 2 µM); 61.5 °C (sodium 1.02 M, strand 2 µM).
“AGCAAGTCGAGCAGGGCCTACGTTT+AAACGTAGGCCCTGCTCGACTTGCT (((((((((((((((((((((((((+)))))))))))))))))))))))))”: the Tm by setting is: (sodium 0.07 M, strand 2 µM) 68.3 °C; (sodium 0.12 M, strand 2 µM) 72.6 °C; (sodium 0.22 M, strand 2 µM) 76.3 °C; (sodium 0.62 M, strand 2 µM) 80 °C; (sodium 1.02 M, strand 2 µM) 81.5 °C.
As for “GACGACGACGACGACGACGACGACGACGAC+GTCGTCGTCGTCGTCGTCGTCGTCGTCGTC ((((((((((((((((((((((((((((((+))))))))))))))))))))))))))))))”, the Tm (sodium 0.15 M, strand 0.0001 M) was 83 °C.
Turning to “ATAAAAATGAATTCATTTTTAT+ATAAAAATGAATTCATTTTTAT ((((((((((((((((((((((+))))))))))))))))))))))”, the Tm (sodium 0.12 M, strand 7 µM) is 52.8 °C.
Turning to “CTCAACTTGCGGTAAATAAATCGCTTAATC+GATTAAGCGATTTATTTACCGCAAGTTGAG ((((((((((((((((((((((((((((((+))))))))))))))))))))))))))))))”, the Tm amounted to 60.9 °C (sodium 0.07 M, strand 2 µM); 64.8 °C (sodium 0.12 M, strand 2 µM); 68.7 °C (sodium 0.22 M, strand 2 µM); 74.4 °C (sodium 0.62 M, strand 2 µM); 75.5 °C (sodium 1.02 M, strand 2 µM).
Consider “CCACTATACCATCTATGTAC+GTACATAGATGGTATAGTGG ((((((((((((((((((((+))))))))))))))))))))”, for which the midpoint of thermal melting (Tm) is, setting by setting: (sodium 0.07 M, strand 2 µM) 51.1 °C; (sodium 0.12 M, strand 2 µM) 54.6 °C; (sodium 0.22 M, strand 2 µM) 58.4 °C; (sodium 0.62 M, strand 2 µM) 62.2 °C; (sodium 1.02 M, strand 2 µM) 64.4 °C.
On to “AACCTGCAACATGGAGTTTTTGTCTCATGC+GCATGAGACAAAAACTCCATGTTGCAGGTT ((((((((((((((((((((((((((((((+))))))))))))))))))))))))))))))”, for which the Tm by setting is: (sodium 0.07 M, strand 2 µM) 64.5 °C; (sodium 0.12 M, strand 2 µM) 68.3 °C; (sodium 0.22 M, strand 2 µM) 72.5 °C; (sodium 0.62 M, strand 2 µM) 77.7 °C; (sodium 1.02 M, strand 2 µM) 78.7 °C.
As for “GTTATTCCGCAGTCCGATGGCAGCAGGCTC+GAGCCTGCTGCCATCGGACTGCGGAATAAC ((((((((((((((((((((((((((((((+))))))))))))))))))))))))))))))”, the Tm (sodium 0.07 M, strand 2 µM) is 70.6 °C; the Tm (sodium 0.12 M, strand 2 µM) is 74.9 °C; the Tm (sodium 0.22 M, strand 2 µM) worked out at 78.1 °C; the Tm (sodium 0.62 M, strand 2 µM) is 82.4 °C; the Tm (sodium 1.02 M, strand 2 µM) turned out to be 84.1 °C.
For “AAAAAAAAAGCTTTTTTTTT+AAAAAAAAAGCTTTTTTTTT ((((((((((((((((((((+))))))))))))))))))))”, where the note is “sodium 0.12 M, strand 5 µM”, the Tm was 51 °C.
On to “GTTCTATACTCTTGAAGTTGATTAC+GTAATCAACTTCAAGAGTATAGAAC (((((((((((((((((((((((((+)))))))))))))))))))))))))”, for which the Tm (sodium 0.07 M, strand 2 µM) is 52.7 °C; the Tm (sodium 0.12 M, strand 2 µM) worked out at 56.1 °C; the Tm (sodium 0.22 M, strand 2 µM) was determined as 60.6 °C; the Tm (sodium 0.62 M, strand 2 µM) worked out at 66.1 °C; the Tm (sodium 1.02 M, strand 2 µM) came out at 67.7 °C.
For “ATATATAGCTATATAT+ATATATAGCTATATAT ((((((((((((((((+))))))))))))))))”, the midpoint of thermal melting (Tm) (sodium 0.12 M, strand 5 µM) was found to be 39.1 °C.
Turning to “GCGAGCGACAGGTTACTTGGCTGAT+ATCAGCCAAGTAACCTGTCGCTCGC (((((((((((((((((((((((((+)))))))))))))))))))))))))”, the Tm by setting is: (sodium 0.07 M, strand 2 µM) 67 °C; (sodium 0.12 M, strand 2 µM) 70.8 °C; (sodium 0.22 M, strand 2 µM) 74.7 °C; (sodium 0.62 M, strand 2 µM) 78.6 °C; (sodium 1.02 M, strand 2 µM) 80.1 °C.
For “ACGGGTCCCCGCACCGCACCGCCAG+CTGGCGGTGCGGTGCGGGGACCCGT (((((((((((((((((((((((((+)))))))))))))))))))))))))” the same measures were 76.8 °C, 79.9 °C, 84 °C, 87.1 °C and 88.3 °C.
